Test results reported in publication PMC11437077.

Target: mouse PD-1 wild type expressed on CHO cells (mouse) (UniProt Q02242)
Assay: biomembrane force probe (BFP), force-ramp spectroscopy (rupture force); PD-L1- or PD-L2-coated glass bead on a micropipette-aspirated RBC against a CHO cell expressing PD-1; continuous retraction until bond rupture; nominal loading rate 1000 pN/s; BFP spring constant 0.3 pN/nm

Sequence of mouse PD-L2 with C-terminal biotin (Q9WUL5 20-221): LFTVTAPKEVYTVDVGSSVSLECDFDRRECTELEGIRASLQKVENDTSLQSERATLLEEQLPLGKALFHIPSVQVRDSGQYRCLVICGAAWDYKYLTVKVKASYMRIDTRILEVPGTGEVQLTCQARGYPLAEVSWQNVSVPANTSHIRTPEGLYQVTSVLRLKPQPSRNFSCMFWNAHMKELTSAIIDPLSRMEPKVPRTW
Sequence of mouse PD-1 wild type expressed on CHO cells (mouse) (Q02242 25-288): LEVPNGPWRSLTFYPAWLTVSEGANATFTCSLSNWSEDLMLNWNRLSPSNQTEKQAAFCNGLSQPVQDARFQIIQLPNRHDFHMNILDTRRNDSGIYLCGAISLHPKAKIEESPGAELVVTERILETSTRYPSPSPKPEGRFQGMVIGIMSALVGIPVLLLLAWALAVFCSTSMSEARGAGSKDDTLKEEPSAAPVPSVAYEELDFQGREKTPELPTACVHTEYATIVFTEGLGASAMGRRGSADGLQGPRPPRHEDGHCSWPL

mouse PD-L2 with C-terminal biotin (from UniProt Q9WUL5 20-221) (ligand)
F1/2 (force at which 50% of the bonds rupture): 12.1 pN
